Source: the FLAb antibody collection (doi:10.1101/2023.12.08.570889)
Where a chain is given by its changes, count along the chain named.

B1: unnamed (protein)
chain 1: QMQLVESGGGVVQPGRSLRLSCAASGFTFRTYGMHWVRQAPGKGLEWVAVIWYDGSNKHYADSVKGRFTITRDNSKNTLNLQMNSLRAEDTAVYYCARAPRYDWLYEAFDVWGQGTMVTVSS
chain 2: SYVLTQPPSVSVAPGQTARITCGGNNLGSKSVHWYQQKPGQAPVLVVYDDSDRPSWIPERFSGSNSGNTATLTISRGEAGDEADYYCQVWDSSSDHVVFGGGTKLTVL
B2: unnamed (protein)
chain 1: B1 chain 1 with L105E
chain 2: B1 chain 2
B3: unnamed (protein)
chain 1: B1 chain 1 with A99S, W104Y, L105Y
chain 2: B1 chain 2
B4: unnamed (protein)
chain 1: B1 chain 1 with W104E, L105Y, E107D
chain 2: B1 chain 2
B5: unnamed (protein)
chain 1: B1 chain 1 with W104Y, L105E
chain 2: B1 chain 2
B6: unnamed (protein)
chain 1: B1 chain 1 with W104D, L105Y, Y106L
chain 2: B1 chain 2
B7: unnamed (protein)
chain 1: B1 chain 1 with A99S, L105Y, Y106L
chain 2: B1 chain 2
B8: unnamed (protein)
chain 1: B1 chain 1 with A99S, W104E, L105Y, Y106W
chain 2: B1 chain 2
B9: unnamed (protein)
chain 1: B1 chain 1 with A99S, D103Y, W104D, L105Y, Y106W
chain 2: B1 chain 2
B10: unnamed (protein)
chain 1: B1 chain 1 with L105A
chain 2: B1 chain 2
B11: unnamed (protein)
chain 1: B1 chain 1 with A99S, W104D, L105Y, Y106L
chain 2: B1 chain 2
B12: unnamed (protein)
chain 1: B1 chain 1 with W104Y, L105Y, Y106V
chain 2: B1 chain 2
B13: unnamed (protein)
chain 1: B1 chain 1 with A99S, W104E, L105Y
chain 2: B1 chain 2
B14: unnamed (protein)
chain 1: B1 chain 1 with W104E, L105A
chain 2: B1 chain 2
B15: unnamed (protein)
chain 1: B1 chain 1 with W104D, L105A
chain 2: B1 chain 2
B16: unnamed (protein)
chain 1: B1 chain 1 with W104F, L105Y
chain 2: B1 chain 2
B17: unnamed (protein)
chain 1: B1 chain 1 with W104D, L105T
chain 2: B1 chain 2
B18: unnamed (protein)
chain 1: B1 chain 1 with W104D, L105R
chain 2: B1 chain 2
B19: unnamed (protein)
chain 1: B1 chain 1 with W104D
chain 2: B1 chain 2

Biological target: TSLP, Q969D9
Experiment: Kd (SPR)

| Binder | Kd |
| --- | --- |
| B1 | 83 nM |
| B2 | 102 nM |
| B3 | 337 nM |
| B4 | 293 nM |
| B5 | 104 nM |
| B6 | 99.9 nM |
| B7 | 335 nM |
| B8 | 369 nM |
| B9 | 72.3 nM |
| B10 | 404 nM |
| B11 | 228 nM |
| B12 | 109 nM |
| B13 | 242 nM |
| B14 | 103 nM |
| B15 | 99.6 nM |
| B16 | 116 nM |
| B17 | 86.2 nM |
| B18 | 241 nM |
| B19 | 122 nM |
